One data set has as its system MOAG-4 (C. elegans). As to the kind of experiment: fluorescence anisotropy. On the technique in general: Polarisation of emitted light reports the rotation of a fluorescent probe.
Data set [1] concerns T1, Atto550-SERF1a (human), O75920-2.
T1 sequence: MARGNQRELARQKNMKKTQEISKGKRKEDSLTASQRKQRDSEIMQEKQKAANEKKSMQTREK
Description: fluorescence anisotropy.

By Kd is commonly meant the constant that tells how readily two partners part at equilibrium. On to ACUGCUAGAGAUUUUCCACAU [Cy3-R21(-)], for which the Kd in the data set with MOAG-4 (C. elegans) was 4.79 µM.

Consider tRNA (type X-SA), for which the Kd in data set [1] was 1.1 µM.

For the origin of these results see paper doi:10.1101/713511.
